Source: PMC3736351 (2014)

Key:
[1] = target: T1, GHRH receptor (spleen cells, 3- and 14-month old rats) (Rattus norvegicus, UniProt Q02644); experiment: homologous competitive radioligand binding
T1 chain: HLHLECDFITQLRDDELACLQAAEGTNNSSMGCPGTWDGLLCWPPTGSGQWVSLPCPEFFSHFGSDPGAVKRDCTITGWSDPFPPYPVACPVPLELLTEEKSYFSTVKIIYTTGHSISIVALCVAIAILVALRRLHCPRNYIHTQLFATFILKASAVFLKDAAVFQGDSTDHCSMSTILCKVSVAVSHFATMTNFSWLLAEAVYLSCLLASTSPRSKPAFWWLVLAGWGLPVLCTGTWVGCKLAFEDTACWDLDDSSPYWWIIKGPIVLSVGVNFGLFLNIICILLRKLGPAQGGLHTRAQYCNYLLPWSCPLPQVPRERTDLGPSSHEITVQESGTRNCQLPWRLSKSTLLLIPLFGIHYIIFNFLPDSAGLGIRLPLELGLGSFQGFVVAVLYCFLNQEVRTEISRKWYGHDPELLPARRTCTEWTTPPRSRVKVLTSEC

[2] = target: T2, GHRH receptor (thymus cells, 3- and 14-month old rats) (Rattus norvegicus, UniProt Q02644); experiment: homologous competitive radioligand binding
T2 chain: T1 chain

## MPLWVFFFVILTLSNSSHCSPPPPLTLRM [GHRH 1-29]
[1]
  Kd: 2 nM
[2]
  Kd: 1 nM
